{
  "source": "the nanobody polyreactivity screen of Harvey et al. (2022)",
  "data": [
    {"assay": "yeast display, Sf9 membrane polyspecificity reagent, FACS + sequencing; frameworks hold sequencing errors", "outline": "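In a synthetic yeast display library (Saccharomyces cerevisiae BJ5465), nanobody expression was induced with galactose for 36–48 hours. FACS gates were set low and high (top ~1%) using anti-HA fluorescence for expression and streptavidin fluorescence for binding of the Sf9 membrane reagent. Each polyreactivity label is drawn from the gate of origin.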", "values": [
      {"sequence": "PVQLVDSGGGLVQAGGSLRLSCGASGRTFRKYGIGWYRQAAGKERELVAGISRSGGTTYYADTVKGRFTISRDTAKNTVYLQMNSLKPEDTAVYYCAKRTGPSGEDYWGQGTQVTVSS", "polyreactivity (PSR sort gate)": "high polyreactivity"},
      {"sequence": "PVQLVESGGGLGQAGGSLRLSCAASGSTFLYSAMGWYRPAPGKERELVAGISASGGSSYYADSVKGRFTISRDYAKNTVYLQMNSLKPEDTAVYYCNATRVVIRHSYDYWGQGTQVTVSS", "polyreactivity (PSR sort gate)": "high polyreactivity"},
      {"sequence": "PVQLVESGGGLVQAGGRLLLICAASGSIFTPKAMGWYRQAPGKERELVAAITSRGGSTYYADSVKGRFTISRDNAKNTFYLQMNSLKPEDTAVYYCASKPHSSKYDYWGQGTQVTVSS", "polyreactivity (PSR sort gate)": "low polyreactivity"},
      {"sequence": "PVQLVESGGGLVQAGGSHRLSCAASGITFGVYPMGWYRQAAGKERELVAAISRRGASTYYADSVKGRFTISRDKAKNSVYLQMNSLKPEDTAVYYCAAYLARRQYDYWGQGTQVTVSS", "polyreactivity (PSR sort gate)": "high polyreactivity"},
      {"sequence": "PVQLVESGGGLVQAGGSLLLSCAASGRIFSRNAMGWNIQAPGKERELVAAISRSGTSTYYADSVKGRFTSSRDNAKNTVYLQMNSLKPEETAVYYCAADYPAVISIRRYDYWGQGTQLTVSS", "polyreactivity (PSR sort gate)": "low polyreactivity"},
      {"sequence": "PVQLVESGGGLVQAGGSLRISCAASGSIFRVNAMGWYRQAPGKERELVAAITTNGGSTYYADSVKGRFTISRDNAKNTVYLQMNSLKPEDTAVYYCAADYSLPWSWLYEYWGQGTQVTVSS", "polyreactivity (PSR sort gate)": "low polyreactivity"},
      {"sequence": "PVQLVESGGGLVQAGGSLRLICAASGRIFLPYAMGWYRQAPGKERELVASITRRGGTTYYADSVKGRFTLSRDYAKNTDYLQLNSLKTEDTSVYYCAADSGYRLQSYGYWGQGTQVTVSS", "polyreactivity (PSR sort gate)": "high polyreactivity"},
      {"sequence": "PVQLVESGGGLVQAGGSLRLICAASGSIFYQYTMGWYRQAPGKERELVATISWSDVSTYYADSVKGRFTISRENAQNPVYLQMNSLKPEDTSVYYCAALYSGWDRYYGYDYWGQGTQVTVSS", "polyreactivity (PSR sort gate)": "low polyreactivity"},
      {"sequence": "PVQLVESGGGLVQAGGSLRLSCAACGYTFQVYAMGWYRQAPGKERELVASIRWRGGRTYYADSVKGRFTISRDNAKNTVYLKLNSLKPADTSVYYCAARQFVIYPTYYTYYYWGQGTQVTVSS", "polyreactivity (PSR sort gate)": "high polyreactivity"},
      {"sequence": "PVQLVESGGGLVQAGGSLRLSCAASGRTFLVYSMGWYRQAPGKERELVAAISNGGSTNYADSVKGRFTISRDNAKKTVYLQMNSLKPEDTALYDCATRIHKWYYYWGQGTQVTVSS", "polyreactivity (PSR sort gate)": "high polyreactivity"},
      {"sequence": "PVQLVESGGGLVQAGGSLRLSCAASGSIFAVNALGWSRQAPGKERELVAAITSGGNTYYADSVKGRFTISRDNAKNTVYLQMNSLKPEDTAVYDCATVFSVQGWYFGMNYWGQGTQVTVSS", "polyreactivity (PSR sort gate)": "low polyreactivity"},
      {"sequence": "PVQLVESGGGLVQAGGSLRLSCAASGSIFGYYAMGWYRQAPGKERELVAAISSSGASTYYADSVKGRFTISRDNAKNTVSLQMNSLKPEDTAVSYCIAARRYPTRGGYWGQGTQVTVSS", "polyreactivity (PSR sort gate)": "high polyreactivity"},
      {"sequence": "PVQLVESGGGLVQAGGSLRLSCAASGSIFGYYAMGWYRQAPGKERELVAAITWSGDSTYYADSVKGRFTISRDNAKNTVYLQMNSLKPEDTAVYYCAARQFVHTRYFSFGYWGQGTQVTVSS", "polyreactivity (PSR sort gate)": "low polyreactivity"},
      {"sequence": "PVQLVESGGGLVQAGGSLRLSCAASGSTFAYNDLGWYRQAPGKERELVADIRSGGNTNYADSVKGRFTISRDNAKNTVYLQMNSLKPEDTAVYYCATDGYRIDVFHPDYRYDYWGQGTQETVSS", "polyreactivity (PSR sort gate)": "low polyreactivity"},
      {"sequence": "PVQLVESGGGLVQAGGSLRLSCSSSGRIFASNAMGWYRQPPGKDRELVAAIDQGGGSTYYADSVKGRFTISRDNAKITVYLQMNSLKPEDTAVYYCAADYITAYPRLYNYWGLGTQVTVSS", "polyreactivity (PSR sort gate)": "low polyreactivity"},
      {"sequence": "QDHHVDSGGGLVQAGGILRLSCAASGSIIDYYPMGWYRQPPGKERELVARIRRRSSSTFYADSVKGRFTISRDNEKNTDYLQMNSLKPEDTAVYYCAADSYAWSTGGIFDYWGQGTQVTVSS", "polyreactivity (PSR sort gate)": "high polyreactivity"},
      {"sequence": "QDHLVESGGGLVQAGGSLRLSCAASGFIFRGNAMGWYRQPPGKERELVAAISRRGGTTYYADCVKGRFTISRDNAKNTDYLQMNSLKPEDTAVYYCAAYSPLSSGMDSWGQGTQVTVSS", "polyreactivity (PSR sort gate)": "high polyreactivity"}
    ]}
  ]
}
